How the values were obtained:
[1] = target: PfSUB2T, 72-kDa terminal intracellular form of PfSUB2, HA3-tagged (P. falciparum) (UniProt O97364)
subtilisin BPN′ = target: T1, subtilisin BPN′ (UniProt P00782 108-382); assay: enzyme inhibition kinetics (Ki determination); hydrolysis of N-succinyl-L-Ala-L-Ala-L-Pro-L-Phe-p-nitroanilide by subtilisin BPN′ with PfSUB2PD; Ki determined as in ref. 33; data not shown; conditions: both partners purified
T1 construct: subtilisin BPN′, a bacterial subtilisin; source: bought: Sigma
T1 sequence (looked up): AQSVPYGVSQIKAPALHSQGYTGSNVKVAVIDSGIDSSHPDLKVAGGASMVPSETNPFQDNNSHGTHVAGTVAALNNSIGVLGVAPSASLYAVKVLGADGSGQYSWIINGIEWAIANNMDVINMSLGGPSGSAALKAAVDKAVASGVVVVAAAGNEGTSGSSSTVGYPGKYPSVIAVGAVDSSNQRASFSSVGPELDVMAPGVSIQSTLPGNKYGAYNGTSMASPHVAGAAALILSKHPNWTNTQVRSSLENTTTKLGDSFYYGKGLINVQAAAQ

Sequence of PfSUB2T, 72-kDa terminal intracellular form of PfSUB2, HA3-tagged (P. falciparum) (O97364 688-1342): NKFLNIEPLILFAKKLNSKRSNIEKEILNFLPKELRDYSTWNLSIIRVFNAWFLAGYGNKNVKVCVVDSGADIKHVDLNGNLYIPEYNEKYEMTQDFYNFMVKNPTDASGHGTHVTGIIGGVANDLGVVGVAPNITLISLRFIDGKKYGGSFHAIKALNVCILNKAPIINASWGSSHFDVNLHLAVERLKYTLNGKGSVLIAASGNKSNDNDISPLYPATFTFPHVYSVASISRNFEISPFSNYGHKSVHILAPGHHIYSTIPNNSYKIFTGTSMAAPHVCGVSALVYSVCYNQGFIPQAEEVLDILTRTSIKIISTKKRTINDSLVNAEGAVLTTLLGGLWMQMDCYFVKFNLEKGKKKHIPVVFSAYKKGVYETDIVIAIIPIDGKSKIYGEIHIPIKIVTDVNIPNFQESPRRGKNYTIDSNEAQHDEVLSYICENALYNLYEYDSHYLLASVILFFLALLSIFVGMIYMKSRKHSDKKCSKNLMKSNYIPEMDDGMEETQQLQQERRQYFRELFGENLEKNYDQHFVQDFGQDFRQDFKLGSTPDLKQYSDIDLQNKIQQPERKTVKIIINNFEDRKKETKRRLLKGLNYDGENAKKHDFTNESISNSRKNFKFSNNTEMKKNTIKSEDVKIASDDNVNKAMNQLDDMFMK

B1: PfSUB2PD (recombinant PfSUB2 propeptide, Asn22-Leu687) (domain or fragment)
chain: NNNNNYYLSNIELYNYKLRKRNRILNNNINDRKSFLSDLEQNYKPLFDIYELSANFEKRRKELEKKTKGEENEIEKKKENDLEEKKENEIEKKKENDLEKEYNDVINLLELSLSSEYKELNADVSNNDNSGHEENNKHKLNKKNSSNYKNDKSLDELIKGAILKLKQNPNIKNKNMLDYDKIFKIIKEKLINKNLASNKIKGGDNEKLKEEKKQSDISTNVEVKKDIINDQLNKGIPTKIENKDDMINKESNKEDITNEGKSNSLNNLNTLNNDGNIITKVYDHYTIVTNSNDILNDISIDASDISKNSIGGINIPFNENDNSSFTHQRYIVLSNNGEKKYKIVLMTKNPKFMDMDGIYDEEEKKESLIELNQKVNKEENTNLYDGTGTLYYGKKSKKEKENTQQKGGNNPNVDINILNNNNNNNNNNNNNSNNNSNSMNDEEINYNNNNNKESPSMFRRFINFLSFSGNENETEDTLIYHNKNDNSYKNKKEGTGKNNDNNDPNNNNNKKILLNVDKLVDQYLLNLKNNHTSKQELILVLKGELDLHSKNMKNVINNAKKNLEKYFKEHFKEFDKISYDISTPINFLCIFIPTLFDMNNMDLLKQALLILHNDLHEYVENWSFSSTYHTYEADYIKEQDSVYDRSPKKKYIKASKKLYNNKYSFL
notes: PfSUB2, subtilisin-like protease 2 of P. falciparum T9/96, propeptide region Asn22-Leu687, amplified from the synthetic gene pfsub2synth; Asn22 is the predicted N-terminus after signal peptide removal; Cleavable 46-residue N-terminal fusion peptide with His6 and S-tag, from the vector pET-30Xa/LIC; not shown: His6, N-terminal, kept; S-tag, N-terminal, kept
IC50 of inhibition of shedding of AMA1 and MSP1 (MESH activity) from isolated 3D7 merozoites; PfSUB2PD titrated from 1.2 μM to 0.075 μM [1]: 300 nM | Ki (subtilisin BPN′): 1200 nM

Reference: PMC1291349, “Molecular Identification of a Malaria Merozoite Surface Sheddase” (PLoS Pathogens, 2005)
